The record followed here is PMC4484057.

The target in one assay is GST-FZD7-CT (UniProt O75084). Briefly: pull-down; as a19, His-Gαi3 (GDP) with GST-FZD7-CT in the presence of His-Daple-CT WT.
The next assay has as its target Gαi1-intYFP (UniProt P63096). Nature of the assay: FRET or BRET; living HeLa cells cotransfected with Gαi1-intYFP, CFP-Gβ1 and Gγ2, 0.2% FBS overnight, before stimulation (t0); confocal, FRET efficiency at the plasma membrane; also Daple-depleted cells with or without Wnt5a, and Wnt3 stimulation, where FRET continued.

Chain of His-Gαi3 (P08753 whole entry): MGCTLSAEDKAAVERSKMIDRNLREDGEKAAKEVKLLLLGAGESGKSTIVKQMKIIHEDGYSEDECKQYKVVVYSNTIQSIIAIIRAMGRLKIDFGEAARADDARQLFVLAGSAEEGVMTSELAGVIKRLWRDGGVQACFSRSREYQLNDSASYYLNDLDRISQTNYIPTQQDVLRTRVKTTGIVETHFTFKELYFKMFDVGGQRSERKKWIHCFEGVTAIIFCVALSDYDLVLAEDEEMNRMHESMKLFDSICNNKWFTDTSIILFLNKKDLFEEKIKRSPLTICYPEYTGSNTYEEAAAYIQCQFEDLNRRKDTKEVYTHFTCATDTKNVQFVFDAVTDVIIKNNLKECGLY
Chain of Gαi1-intYFP (P63096 whole entry): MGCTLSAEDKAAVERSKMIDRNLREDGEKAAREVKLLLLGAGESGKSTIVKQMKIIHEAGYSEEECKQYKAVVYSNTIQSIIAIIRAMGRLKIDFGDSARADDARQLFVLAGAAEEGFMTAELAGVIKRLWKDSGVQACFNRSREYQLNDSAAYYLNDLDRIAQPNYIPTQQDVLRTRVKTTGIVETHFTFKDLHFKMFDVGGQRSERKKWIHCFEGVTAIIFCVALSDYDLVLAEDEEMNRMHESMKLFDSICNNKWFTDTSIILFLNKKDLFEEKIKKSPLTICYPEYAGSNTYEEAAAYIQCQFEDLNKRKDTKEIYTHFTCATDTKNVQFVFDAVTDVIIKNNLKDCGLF

As for “His-Gαi3 (from UniProt P08753 1-354) (natural protein)”, in the assay with GST-FZD7-CT, the fold increase of binding in the presence of m2 was 5 fold.

“CFP-Gβ1 with Gγ2 (from UniProt P62873 1-340; P59768 1-71) (complex)” came in with an FRET efficiency with Gαi1-intYFP of 0.36.
